According to article PMC2148189 (The Journal of Cell Biology, 1999):

T1: GST–ponsin-2-C (the COOH-terminal half) (mouse, UniProt Q62417-3 401-724)
T1 sequence (looked up): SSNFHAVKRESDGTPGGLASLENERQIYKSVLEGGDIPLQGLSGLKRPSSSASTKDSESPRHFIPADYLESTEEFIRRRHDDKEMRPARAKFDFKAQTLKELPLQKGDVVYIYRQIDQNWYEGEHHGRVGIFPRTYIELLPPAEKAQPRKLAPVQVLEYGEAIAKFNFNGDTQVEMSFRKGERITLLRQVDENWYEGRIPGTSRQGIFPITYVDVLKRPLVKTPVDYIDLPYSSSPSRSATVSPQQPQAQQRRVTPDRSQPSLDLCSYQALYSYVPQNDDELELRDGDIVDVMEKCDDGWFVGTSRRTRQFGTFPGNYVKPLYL

T2: GST–ponsin-2-F (the full length) (mouse, UniProt Q62417-3 1-724)
T2 sequence (looked up): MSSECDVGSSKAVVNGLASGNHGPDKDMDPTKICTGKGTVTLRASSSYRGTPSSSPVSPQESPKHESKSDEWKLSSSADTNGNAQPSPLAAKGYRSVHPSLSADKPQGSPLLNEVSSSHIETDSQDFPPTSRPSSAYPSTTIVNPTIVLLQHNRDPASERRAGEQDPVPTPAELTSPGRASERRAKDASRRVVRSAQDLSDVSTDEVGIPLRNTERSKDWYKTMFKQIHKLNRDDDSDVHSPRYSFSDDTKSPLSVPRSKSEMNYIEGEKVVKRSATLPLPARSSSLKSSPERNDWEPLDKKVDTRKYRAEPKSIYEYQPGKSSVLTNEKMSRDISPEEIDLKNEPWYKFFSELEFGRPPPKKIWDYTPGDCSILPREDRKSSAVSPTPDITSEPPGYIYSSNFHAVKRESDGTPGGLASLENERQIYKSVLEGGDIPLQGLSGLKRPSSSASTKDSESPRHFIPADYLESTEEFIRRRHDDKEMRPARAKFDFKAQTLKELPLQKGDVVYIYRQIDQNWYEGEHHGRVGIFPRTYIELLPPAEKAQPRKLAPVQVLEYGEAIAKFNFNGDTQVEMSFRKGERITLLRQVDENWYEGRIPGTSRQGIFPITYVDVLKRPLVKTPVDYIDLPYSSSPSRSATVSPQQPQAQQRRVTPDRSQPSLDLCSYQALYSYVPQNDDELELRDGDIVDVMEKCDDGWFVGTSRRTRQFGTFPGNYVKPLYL

B1: His6–l-afadin-C199 (domain or fragment, UniProt O35889-1 1631-1829, looked up)
chain: DRVRQEEDGRHQEEERVKRDAEEKRRQEEGYYSRLEAERRRQHEEAARRLLEPEEPGLSRPPLPQDYEPPSQSSAPSAPPPPPQRNASYLKTQVLSPDSLFTAKFVAYDDDDEEENYVPAGPNSYSGSAGTTAGTYDAPRDTREKLSRSQDADLPGSSGAPENLTFRERQRLFSQGQDVSDKVKASRKLTELENELNTK

Legend:
Assay in all cases: pull-down
[1] = biological target: T1, GST–ponsin-2-C (the COOH-terminal half)
[2] = biological target: T2, GST–ponsin-2-F (the full length)
[3] = biological target: B1

Binder | binding result [1] | binding result [2] | binding result [3]
B1 | binds | binds | 
GST–ponsin-2-SH3(2+3) (the second and third SH3 domains) (domain or fragment, mouse, UniProt Q62417-3 543-724, looked up) AEKAQPRKLAPVQVLEYGEAIAKFNFNGDTQVEMSFRKGERITLLRQVDENWYEGRIPGTSRQGIFPITYVDVLKRPLVKTPVDYIDLPYSSSPSRSATVSPQQPQAQQRRVTPDRSQPSLDLCSYQALYSYVPQNDDELELRDGDIVDVMEKCDDGWFVGTSRRTRQFGTFPGNYVKPLYL |  |  | binds
